Series [1] addresses murine Fas ligand extracellular domain, long form, His-tagged (muFasL^L, 103-281) (mouse) (UniProt P41047). Description: non-reducing gel with 60% lowered SDS, FasL immunoblot; his-tagged human and murine FasL forms added onto murine 4T1 cells (also human OVCAR3 cells) for 2 hr in serum-free media; supernatant precipitated and loaded without boiling on non-reducing gels. A general note: In western blotting, separated proteins are transferred to a membrane and probed.

Series [2] concerns the target Rhesus monkey Fas ligand extracellular domain, shortest form (RhFasL^ST) (Rhesus monkey) (UniProt P63307). The series can be described thus: SEC; freshly purified FasL in PBS, 10 ug loaded on Superdex 200 10/300 GL, 1 ml/min, A280; trimer and monomer peaks. In general terms: SEC sorts molecules by how far they enter the pores of the column.
Series [3] addresses murine Fas ligand extracellular domain, shorter form, His-tagged (muFasL^S, 134-281) (mouse) (UniProt P41047). The series can be described thus: non-reducing gel with 60% lowered SDS, FasL immunoblot; his-tagged human and murine FasL forms added onto murine 4T1 cells (also human OVCAR3 cells) for 2 hr in serum-free media; supernatant precipitated and loaded without boiling on non-reducing gels.

Series [4] addresses human Fas ligand extracellular domain, shortest form, His-tagged (HuFasL^ST, 146-281) (human) (UniProt P48023). Description: SEC; freshly purified FasL in PBS, 10 ug loaded on Superdex 200 10/300 GL, 1 ml/min, A280; trimer and monomer peaks.
Series [5] concerns the molecule itself. The description is as above.
Series [6] has as its target T1, human Fas ligand extracellular domain, shorter form, His-tagged (HuFasL^S, 134-281) (human), P48023.
T1 chain: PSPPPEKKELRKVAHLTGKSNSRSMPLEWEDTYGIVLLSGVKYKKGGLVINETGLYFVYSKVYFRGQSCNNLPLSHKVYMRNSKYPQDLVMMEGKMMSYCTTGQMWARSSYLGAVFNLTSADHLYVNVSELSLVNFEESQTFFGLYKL
The series is described as above. The settings on record: remark: other sources report otherwise.

Residue numbers refer to the chain shown, from its start. In names and notes the source's numbering stands.

Usually stoichiometry N stands for a count of units in the complex or per binding partner. “murine Fas ligand extracellular domain, long form, His-tagged (muFasL^L, 103-281) (from UniProt P41047 103-279) (domain or fragment)” gave a stoichiometry N in series [1] of 3.

As to “Rhesus monkey Fas ligand extracellular domain, shortest form (RhFasL^ST) (from UniProt P63307 146-280) (domain or fragment)”, the stoichiometry N in series [2] is 3.

In series [3], “murine Fas ligand extracellular domain, shorter form, His-tagged (muFasL^S, 134-281) (from UniProt P41047 134-279) (domain or fragment)” came in with a stoichiometry N of 3.

With “human Fas ligand extracellular domain, shortest form, His-tagged (HuFasL^ST, 146-281) (from UniProt P48023 146-281) (domain or fragment)”, in series [4], the stoichiometry N is 3.

B1: Rhesus monkey Fas ligand extracellular domain, shorter form (RhFasL^S, 134-281) (domain or fragment, UniProt P63307 134-280, looked up)
chain: SPPPEKKEQRKVAHLTGKPNSRSMPLEWEDTYGIVLLSGVKYKKGGLVINETGLYFVYSKVYFRGQSCTNLPLSHKVYMRNSKYPQDLVMMEGKMMSYCTTGQMWAHSSYLGAVFNLTSADHLYVNVSELSLVNFEESQTFFGLYKL
notes: Rhesus monkey Fas ligand (FasL), residues 134-281, carries P153; source: Freestyle CHO-S cells, transfected, purified from supernatant (his-TRAP)
For B1, the “stoichiometry N” value in series [5] was found to be 3.

B2: human Fas ligand extracellular domain, long form, His-tagged (HuFasL^L, 103-281) (domain or fragment, UniProt P48023 103-281, looked up)
chain: QLFHLQKELAELRESTSQMHTASSLEKQIGHPSPPPEKKELRKVAHLTGKSNSRSMPLEWEDTYGIVLLSGVKYKKGGLVINETGLYFVYSKVYFRGQSCNNLPLSHKVYMRNSKYPQDLVMMEGKMMSYCTTGQMWARSSYLGAVFNLTSADHLYVNVSELSLVNFEESQTFFGLYKL
notes: human Fas ligand (FasL, CD95L), entire extracellular domain, residues 103-281 (Q103-L281), carries S153; C-terminal His-tag versions were poorly expressed and not functional; N-terminal His-tag proteins were used; Mixture of trimer and monomer by SEC; also called Long^(L); huFasL^WT; source: Freestyle CHO-S cells, transfected, purified from supernatant (his-TRAP); not shown: His tag, N-terminal, …
As to B2, the “stoichiometry N” value in series [5] came to 3.

B3: human Fas ligand extracellular domain, long form, S153P (HuFasL-S153P^L, 103-281) (domain or fragment, UniProt P48023 103-281, looked up)
chain: B2 chain with S51P
notes: human Fas ligand (FasL), residues 103-281 with S153P; The substitution was engineered here; source: Freestyle CHO-S cells, transfected, purified from supernatant (his-TRAP)
As to B3, the “stoichiometry N” value in series [5] stood at 3.

B4: Rhesus monkey Fas ligand extracellular domain, long form, His-tagged (RhFasL^L, 103-281) (domain or fragment, UniProt P63307 103-280, looked up)
chain: LFHLQKELAELRESTSQKHTASSLEKQIGHPSPPPEKKEQRKVAHLTGKPNSRSMPLEWEDTYGIVLLSGVKYKKGGLVINETGLYFVYSKVYFRGQSCTNLPLSHKVYMRNSKYPQDLVMMEGKMMSYCTTGQMWAHSSYLGAVFNLTSADHLYVNVSELSLVNFEESQTFFGLYKL
notes: Rhesus monkey Fas ligand (FasL), entire extracellular domain, residues 103-281, carries P153; source: Freestyle CHO-S cells, transfected, purified from supernatant (his-TRAP); not shown: His tag, N-terminal, kept
On to B4, for which the “stoichiometry N” value in series [5] is 3.

B5: human Fas ligand extracellular domain, shorter form, His-tagged (HuFasL^S, 134-281), P48023 134-281 (domain or fragment)
chain: T1 chain
Turning to B5, in series [6], the stoichiometry N stood at 3.

B6: human Fas ligand extracellular domain, shorter form, S153P (HuFasL-S153P^S, 134-281) (domain or fragment, UniProt P48023 134-281, looked up)
chain: T1 chain with S20P
notes: human Fas ligand (FasL), residues 134-281 with S153P; The substitution was engineered here; source: Freestyle CHO-S cells, transfected, purified from supernatant (his-TRAP)
On to B6, for which the “stoichiometry N” value in series [5] turned out to be 3.

(Values after PMC12217004, “Evolutionary regulation of human Fas ligand (CD95L) by plasmin in solid cancer immunotherapy” (Nature Communications, 2025).)
